Read-outs that look alike come from different tables or passages of the source.

Series [1] concerns the molecule itself. Kind of series: crystal structure.
Series [2] deals with the molecule itself. The series can be described thus: crystal structure. This is another data set of the same source.

B1: human syntenin-1 PDZ tandem (PDZ1-PDZ2), residues 113-273 (domain or fragment, UniProt O00560 113-273, looked up)
chain: REVILCKDQDGKIGLRLKSIDNGIFVQLVQANSPASLVGLRFGDQVLQINGENCAGWSSDKAHKVLKQAFGEKITMTIRDRPFERTITMHKDSTGHVGFIFKNGKITSIVKDSSAARNGLLTEHNICEINGQNVIGLKDSQIADILSTSGTVVTITIMPAF
Turning to B1, in the series “crystal structure [1]”, the binding result is given as “binds”.

B2: human syntenin-1 PDZ tandem (PDZ1-PDZ2), residues 113-276 (domain or fragment, UniProt O00560 113-276, looked up)
chain: REVILCKDQDGKIGLRLKSIDNGIFVQLVQANSPASLVGLRFGDQVLQINGENCAGWSSDKAHKVLKQAFGEKITMTIRDRPFERTITMHKDSTGHVGFIFKNGKITSIVKDSSAARNGLLTEHNICEINGQNVIGLKDSQIADILSTSGTVVTITIMPAFIFE
For the protein B2, in “crystal structure [2]”, the binding result is listed as “binds”.

The values above are taken from publication doi:10.1101/2025.05.22.655525 (bioRxiv, 2025).
